From article PMC8133684, “The URL1–ROC5–TPL2 transcriptional repressor complex represses the ACL1 gene to modulate leaf rolling in rice”

T1: GST-URL1 (ROC8) (Oryza sativa L., UniProt Q69T58 1-710)
T1 sequence: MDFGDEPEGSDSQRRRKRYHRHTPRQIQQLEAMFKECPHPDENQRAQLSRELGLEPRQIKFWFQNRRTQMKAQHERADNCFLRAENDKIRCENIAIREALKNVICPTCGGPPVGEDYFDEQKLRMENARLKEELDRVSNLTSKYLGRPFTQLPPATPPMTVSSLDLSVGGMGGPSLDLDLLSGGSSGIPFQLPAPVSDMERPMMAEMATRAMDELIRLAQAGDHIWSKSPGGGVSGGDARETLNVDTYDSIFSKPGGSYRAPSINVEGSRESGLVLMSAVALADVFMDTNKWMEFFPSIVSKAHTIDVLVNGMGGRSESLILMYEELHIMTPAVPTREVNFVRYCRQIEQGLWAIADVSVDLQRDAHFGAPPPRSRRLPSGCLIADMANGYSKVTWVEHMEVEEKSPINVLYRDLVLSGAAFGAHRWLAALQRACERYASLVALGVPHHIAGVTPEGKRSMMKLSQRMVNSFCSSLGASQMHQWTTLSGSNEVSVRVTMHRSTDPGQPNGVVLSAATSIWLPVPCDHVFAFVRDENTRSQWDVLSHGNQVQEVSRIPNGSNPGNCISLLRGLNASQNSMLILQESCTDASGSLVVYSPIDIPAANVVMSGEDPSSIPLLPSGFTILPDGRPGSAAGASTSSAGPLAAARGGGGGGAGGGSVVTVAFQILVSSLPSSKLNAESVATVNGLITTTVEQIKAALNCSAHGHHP


Columns and labels:
GST-URL1 (ROC8) [1] = biological target: T1, GST-URL1 (ROC8); assay: EMSA; LightShift Chemiluminescent EMSA Kit; buffer, salt, pH and temperature not stated; conditions: protein: recombinant; tags: N-terminal GST (pCold-GST); chain copies: 2; label: 3' biotin; blunt
GST-URL1 (ROC8) [2] = biological target: T1, GST-URL1 (ROC8); assay: competition; 100-, 300-, 1000-fold excess vs labeled L1-box II probe; LightShift Chemiluminescent EMSA Kit; buffer, salt, pH and temperature not stated; conditions: protein: recombinant; tags: N-terminal GST (pCold-GST); chain copies: 2; blunt
GST-URL1 (ROC8) [3] = biological target: T1, GST-URL1 (ROC8); assay: competition; 100-, 300-, 1000-fold excess vs labeled L1-box I probe; LightShift Chemiluminescent EMSA Kit; buffer, salt, pH and temperature not stated; conditions: protein: recombinant; tags: N-terminal GST (pCold-GST); chain copies: 2; blunt

Binder	binding result (GST-URL1 (ROC8) [1])	further results
mACL1 L1-box I (L1 box deleted) (dsDNA) DNA 1: ACCGACTAATGGCAATATAAAGATATACCATATCCTGTACTAAGCAATAACCTA DNA 2: TAGGTTATTGCTTAGTACAGGATATGGTATATCTTTATATTGCCATTAGTCGGT	no binding	
ACL1 L1-box II unlabeled competitor (dsDNA) DNA 1: TTATCATAAAAGAAACTATAATATTAACTTATACATTTACATATTTATACTAAATTTTTAAATAAGGCAA DNA 2: TTGCCTTATTTAAAAATTTAGTATAAATATGTAAATGTATAAGTTAATATTATAGTTTCTTTTATGATAA		binding result (GST-URL1 (ROC8) [2]): binds
mACL1 L1-box II (L1 box deleted) (dsDNA) DNA 1: TTATCATAAAAGAAACTATAATATTAACTTACATTACTTTAAGGCAA DNA 2: TTGCCTTAAAGTAATGTAAGTTAATATTATAGTTTCTTTTATGATAA	no binding	
ACL1 L1-box I unlabeled competitor (dsDNA) DNA 1: CCGACTAATGGCAATATATACGTGCAAAGATACATTTATATACCATATCCTGTACTAAGCAATAACCTA DNA 2: TAGGTTATTGCTTAGTACAGGATATGGTATATAAATGTATCTTTGCACGTATATATTGCCATTAGTCGG		binding result (GST-URL1 (ROC8) [3]): binds
